Assay results: patent publication US20250171549A1 (Amgen, published 2025)

T1: cynomolgus monkey CCR8 (T4R; comprising arginine at position four) (cynomolgus monkey, UniProt O97665 1-356 (rhesus entry))
T1 construct: Expressed on CHO cells; also called cy CCR8 (T4R); Cynomolgus monkey Mauritian origin T4R CCR8
T1 chain: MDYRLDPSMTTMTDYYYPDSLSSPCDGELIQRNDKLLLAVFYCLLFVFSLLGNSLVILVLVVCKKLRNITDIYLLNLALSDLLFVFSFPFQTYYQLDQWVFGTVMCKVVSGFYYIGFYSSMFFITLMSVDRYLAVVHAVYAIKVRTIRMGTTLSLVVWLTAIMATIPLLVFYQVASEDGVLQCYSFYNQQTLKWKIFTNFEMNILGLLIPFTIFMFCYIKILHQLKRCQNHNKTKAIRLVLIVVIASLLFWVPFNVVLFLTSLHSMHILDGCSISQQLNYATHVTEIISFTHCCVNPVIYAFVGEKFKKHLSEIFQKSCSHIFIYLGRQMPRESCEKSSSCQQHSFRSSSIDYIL


Tests used:
[1] = biological target: T2, cynomolgus monkey CCR8 (comprising threonine at position four) (cynomolgus monkey, UniProt O97665 1-356 (rhesus entry)); test: flow cytometry titration on CHO cells
T2 construct: also called Cyno CCR8; cynomolgus CCR8
Procedure: (§1) Bound anti-CCR8 antibody molecules were detected with Alexa Fluor 647 conjugated Goat anti-Human IgG (H+L). Cells were subsequently stained with Zombie Violet viability dye, fixed with 4% PFA on ice, and detected by fluorescence cytometry. Equilibrium dissociation constant (Kd) values were calculated by non-linear regression with the one site specific binding evaluation tool of the GraphPad Prism software. “N.D.” means not detectable.

human CCR8 [2] = biological target: T3, human CCR8 (human, UniProt P51685 1-355); test: cell-based or functional assay
[3] = biological target: T1, cynomolgus monkey CCR8 (T4R; comprising …); test: flow cytometry titration on CHO cells; N.D. means not detectable
Procedure: as §1

[4] = biological target: T1, cynomolgus monkey CCR8 (T4R; comprising …); test: flow cytometry titration on CHO cells
Procedure: as §1

human CCR8 [5] = biological target: T3, human CCR8; test: cell-based or functional assay; remark: listed apart in the source

T3 sequence (P51685 whole entry): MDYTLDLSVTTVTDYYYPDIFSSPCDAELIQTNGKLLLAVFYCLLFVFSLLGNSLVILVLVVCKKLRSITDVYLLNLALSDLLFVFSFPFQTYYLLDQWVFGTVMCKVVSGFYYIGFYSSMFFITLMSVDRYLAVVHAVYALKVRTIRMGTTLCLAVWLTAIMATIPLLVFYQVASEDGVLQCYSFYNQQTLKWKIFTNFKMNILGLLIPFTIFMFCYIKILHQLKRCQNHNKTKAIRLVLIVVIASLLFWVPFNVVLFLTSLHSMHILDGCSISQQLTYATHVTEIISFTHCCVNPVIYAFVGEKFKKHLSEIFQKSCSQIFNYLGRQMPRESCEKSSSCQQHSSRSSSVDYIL

| Kd [1] [nM] | binding result [3] | Kd [4] [nM] | Percent Inhibition (IC50 nM) of CCL1-dependent chemotaxis of HUT78 cells (human CCR8 [5]) [nM] | Binder | ADCC, Percent Non-Viable cells (EC50 pM), Donor 1 (human CCR8 [2]) [pM] | ADCC, Percent Non-Viable cells (EC50 pM), Donor 2 (human CCR8 [2]) [pM] | ADCC, Percent Non-Viable cells (EC50 pM), Donor 3 (human CCR8 [2]) [pM] |
| --- | --- | --- | --- | --- | --- | --- | --- |
| 0.172 | no binding (tested: 0.005-100 nM) |  |  | Antibody 1.1 IgG1 (LC: H45Q_S51P) (antibody, V domains shown, Afucosylated IgG1) VH: EVQLVESGGGLVKPGGSLRLSCAASGFTFSNARMGWVRQAPGKGLEWVGRIKSKTEGGTRDYAAPVKGRFTISRDDSKNTLYLQMNSLKTEDTAVYYCTSYSGVWGQGTMVTVSS VL: not shown | < 0.256 | 8.13 | 2.2 |
| 0.399 |  | 0.989 | 0.076 | Antibody 2.2 IgG1 (LC: F2I_P51S_H53Q_L103V_N148K, HC: K87N_S94N_V98A)(LC: Y25A, HC: A71L_D72K) (antibody, V domains shown, Afucosylated IgG1) VH: QVQLVESGGGVVQPGRSLRLSCAASGFTFSNYGMHWVRQAPGKGLEWVAVISYDGSNKFYLKSVKGRFTISRDNSKNTLYLQMNSLRAEDTAVYYCARAGGIGRFDYWGQGTLVTVSS VL: DIVMTQTPLSLSVTPGQPASISCKASQSLLHSDGKTYLFWYLQKPGQSPQLLIYEVSNRFSGVPDRFSGSGSGTDFTLKISRVEAEDVGVYYCMQTLKLPLTFGGGTKVEIKR | < 0.256 | 6.04 | 1.8 |
